What all share (assay): cell-based or functional assay
Experiment [1] concerns the target CaV2.2 in transfected neurons.
Experiment [2] addresses CaV2.2 expressed in human embryonic kidney 293 (HEK293) cells.
Experiment [3] addresses CaV2.2 in dorsal root ganglion neurons from Nf1+/- mice (mouse) (UniProt O55017).

Chain of CaV2.2 in dorsal root ganglion neurons from Nf1+/- mice (mouse) (O55017 whole entry): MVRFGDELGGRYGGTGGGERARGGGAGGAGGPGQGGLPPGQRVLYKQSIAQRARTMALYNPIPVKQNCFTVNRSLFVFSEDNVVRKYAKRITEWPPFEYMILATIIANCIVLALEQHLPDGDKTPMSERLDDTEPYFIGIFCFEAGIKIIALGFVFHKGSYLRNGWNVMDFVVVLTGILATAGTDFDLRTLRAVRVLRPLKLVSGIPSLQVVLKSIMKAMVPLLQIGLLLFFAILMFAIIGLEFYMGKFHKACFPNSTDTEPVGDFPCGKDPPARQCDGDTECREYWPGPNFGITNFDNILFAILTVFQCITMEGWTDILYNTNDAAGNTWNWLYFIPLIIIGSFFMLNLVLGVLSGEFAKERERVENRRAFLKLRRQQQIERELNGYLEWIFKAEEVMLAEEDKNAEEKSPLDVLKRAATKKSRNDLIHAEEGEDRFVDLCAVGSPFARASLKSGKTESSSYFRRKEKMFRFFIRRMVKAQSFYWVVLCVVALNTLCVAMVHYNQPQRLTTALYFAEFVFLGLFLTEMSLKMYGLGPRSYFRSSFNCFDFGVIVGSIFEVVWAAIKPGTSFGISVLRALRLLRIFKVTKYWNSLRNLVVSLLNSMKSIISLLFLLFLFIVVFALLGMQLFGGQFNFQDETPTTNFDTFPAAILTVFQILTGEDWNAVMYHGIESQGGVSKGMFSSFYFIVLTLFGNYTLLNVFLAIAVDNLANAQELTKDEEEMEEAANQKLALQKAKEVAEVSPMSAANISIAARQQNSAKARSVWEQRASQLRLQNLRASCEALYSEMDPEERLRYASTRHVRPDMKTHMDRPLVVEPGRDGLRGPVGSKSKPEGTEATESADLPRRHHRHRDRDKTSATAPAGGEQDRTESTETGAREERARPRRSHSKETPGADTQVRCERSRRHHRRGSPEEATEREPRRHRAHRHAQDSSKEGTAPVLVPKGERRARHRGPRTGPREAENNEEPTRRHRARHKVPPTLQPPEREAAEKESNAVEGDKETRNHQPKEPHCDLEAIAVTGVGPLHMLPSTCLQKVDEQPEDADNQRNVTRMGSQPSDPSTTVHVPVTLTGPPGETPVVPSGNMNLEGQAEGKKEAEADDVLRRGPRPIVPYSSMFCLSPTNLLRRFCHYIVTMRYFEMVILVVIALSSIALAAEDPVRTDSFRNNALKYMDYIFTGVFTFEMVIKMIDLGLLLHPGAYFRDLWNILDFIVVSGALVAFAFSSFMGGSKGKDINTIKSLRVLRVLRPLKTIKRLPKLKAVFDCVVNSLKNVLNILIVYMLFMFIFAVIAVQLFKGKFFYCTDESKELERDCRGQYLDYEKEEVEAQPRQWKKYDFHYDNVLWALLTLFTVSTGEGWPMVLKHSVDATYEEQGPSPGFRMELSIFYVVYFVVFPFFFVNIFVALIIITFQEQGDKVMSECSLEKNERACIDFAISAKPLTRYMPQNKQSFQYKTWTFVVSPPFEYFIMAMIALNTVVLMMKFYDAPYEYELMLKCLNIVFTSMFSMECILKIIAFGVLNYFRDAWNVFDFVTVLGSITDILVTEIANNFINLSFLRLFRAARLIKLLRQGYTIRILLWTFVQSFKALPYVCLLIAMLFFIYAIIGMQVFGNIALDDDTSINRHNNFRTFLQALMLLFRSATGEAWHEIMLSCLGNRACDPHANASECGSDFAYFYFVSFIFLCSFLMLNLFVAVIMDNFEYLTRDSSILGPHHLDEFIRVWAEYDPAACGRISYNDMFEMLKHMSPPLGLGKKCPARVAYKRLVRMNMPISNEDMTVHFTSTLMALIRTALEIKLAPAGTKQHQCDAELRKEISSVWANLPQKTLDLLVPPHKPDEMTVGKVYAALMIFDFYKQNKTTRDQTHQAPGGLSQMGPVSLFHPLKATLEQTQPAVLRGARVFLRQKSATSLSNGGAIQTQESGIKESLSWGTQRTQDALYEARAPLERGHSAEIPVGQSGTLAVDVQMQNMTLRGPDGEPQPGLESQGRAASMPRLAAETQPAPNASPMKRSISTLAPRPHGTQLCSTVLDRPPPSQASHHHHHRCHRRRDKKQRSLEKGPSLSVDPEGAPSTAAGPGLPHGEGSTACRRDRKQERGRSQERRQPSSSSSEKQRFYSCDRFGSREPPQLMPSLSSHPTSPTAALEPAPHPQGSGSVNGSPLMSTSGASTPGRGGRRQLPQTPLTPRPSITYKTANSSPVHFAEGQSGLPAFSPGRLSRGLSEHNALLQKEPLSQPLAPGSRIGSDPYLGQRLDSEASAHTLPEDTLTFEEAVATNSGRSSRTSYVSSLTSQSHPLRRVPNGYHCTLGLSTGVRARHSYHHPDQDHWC

As to “CBD3 peptide fused to enhanced green fluorescent protein (EGFP)”, in experiment [1], the reduction of peak Ca^2+ current density compared to CRMP-2 neurons (whole-cell voltage clamp) came to 64%. Moreover, the cells exhibiting CaV2.2 staining on the surface in experiment [2] is 10%.

On to TAT-CBD3 (peptide), for which, in experiment [3], the reduction in KCl-stimulated CGRP release compared with TAT-control (10 µM TAT-CBD3) is 85%.

(Values after US20180117114A1, “PEPTIDES THAT MODULATE THE EFFECT OF THE CRMP: NEUROFIBROMIN COMPLEX ON SYNAPTIC TRANSMISSION” (Indiana University Research and Technology Coporation, priority 2015, published 2018).)
